{"source": "paper PMC5389482", "system": "ParF (plasmid TP228 (segregation module))", "experiment": "fluorescence polarization", "settings": "5 mM ATP, 5 mM Mg acetate, 150 mM K glutamate; 150 mM potassium glutamate (50-350 mM in salt series), pH 7.5, 5 mM magnesium acetate, 5 mM ATP or ADP, 25 C, 1 nM DNA"}
{"sequence": "AATTACTCAATTACTCAATT (double strand) [20-mer]", "values": [{"measurement": "Kd", "value": 156, "unit": "nM"}]}
